Assay [1] concerns the target T1, C domain of human CD33 (human, UniProt P20138 140-259, limits assumed).
T1 construct: recombinant C domain
The assay can be described thus: SPR, Fab captured, 37C. Background: Surface plasmon resonance follows binding to a sensor surface in real time, without labels.
Method: (§1) Kinetics and affinity of a series of Fab fragments of anti-CD33 antibodies with different CD33 variants (human CD33 ECD, cyno CD33 ECD, V-domain of human CD33, C-domain or human CD33 and selected CD33 SNPs) were assessed by surface plasmon resonance using Biacore 8K instrument (GE Healthcare). Anti-Fab antibody was immobilized on a CMS chip using standard amine coupling chemistry. CD33 FABs were captured on the anti-Fab chip at a density of ˜100 RU. Solutions containing different concentrations of soluble monomeric CD33 or its domains were injected over the captured FABs and control surfaces at 30 μl/min at 37° C. Surfaces were regenerated between cycles by quick injection of 10 mM glycine, pH 1.8. To obtain kinetic rate constants double-referenced data were fit to a 1:1 interaction model using Biacore 8K Evaluation software (GE Healthcare). The equilibrium binding constant KD was determined by the ratio of binding rate constants kd/kₐ.

The target in assay [2] is T2, V domain of human CD33 (human, UniProt P20138 18-139, limits assumed).
T2 construct: recombinant, fully glycosylated V domain; also called Human CD33 V domain
The assay is described as follows: SPR, Fab captured, 37C.
Method: as §1

Assay [3] addresses T3, human CD33 extracellular domain (human, UniProt P20138 18-259).
T3 construct: soluble monomeric ECD; also called human CD33 ECD; hCD33
The assay is described as follows: SPR, Fab captured, 37C.
Method: as §1

Assay [4] has as its target T2, V domain of human CD33. The assay is described as follows: SPR, Fab captured, 37C. This is another data set of the same source.
Method: as §1
Assay [5] addresses T3, human CD33 extracellular domain. The assay is described as follows: SPR, Fab captured, 37C. This is another data set of the same source.
Method: as §1
For assay [6] the target is unchanged. The assay is described as follows: SPR, Fab captured, 37C. The source holds these as a separate data set.
Method: as §1
Affinity of 29 Fab fragments binding to human and cyno CD33 ECD were assayed by Biacore analysis.
Assay [7] addresses T4, cyno CD33 extracellular domain (Cynomolgus/Rhesus (cyno)).
T4 construct: soluble monomeric ECD; also called cyno CD33 ECD
The assay can be described thus: SPR, Fab captured, 37C.

The target of assay [8] is T3, human CD33 extracellular domain. The assay is described as follows: SPR, Fab captured, 37C. The source holds these as a separate data set.
Assay [9] has as its target T2, V domain of human CD33. The assay is described as follows: SPR, Fab captured, 37C. This is another data set of the same source.
Method: as §1
(§2) The ability of anti-CD33 antibodies to recognize glycosylated CD33 was assayed. […] De-glycosylation status was confirmed by a shift on SDS-PAGE and MS.
For assay [10], the target named is T5, deglycosylated V domain of human CD33 (human, UniProt P20138 18-139, limits assumed, N-glycans removed by PNGase).
T5 construct: V domain deglycosylated by PNGase before testing; also called deglycosylated V CD33
The assay can be described thus: SPR, Fab captured, 37C.
Method: as §1, §2

In assay [11] the target is T6, human NKG2D expressed on cells (human, UniProt P26718 1-216).
T6 construct: whole, on cells; also called hNKG2D; EL4-hNKG2D
T6 sequence (looked up): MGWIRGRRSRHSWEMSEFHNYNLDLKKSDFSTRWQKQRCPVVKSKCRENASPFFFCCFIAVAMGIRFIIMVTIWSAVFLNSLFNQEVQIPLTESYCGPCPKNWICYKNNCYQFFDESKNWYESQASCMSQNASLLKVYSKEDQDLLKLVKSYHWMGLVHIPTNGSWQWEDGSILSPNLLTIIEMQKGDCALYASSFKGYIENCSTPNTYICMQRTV
The assay is described as follows: flow cytometry on EL4-hNKG2D cells. A general note: Flow cytometry measures light scatter and fluorescence of single cells or particles in a stream.
Method: EL4-hNKG2D cells were incubated with the diluted TriNKET or mAb solutions. Binding of the TriNKET or mAb to the EL4 cells was detected using a fluorophore-conjugated anti-human IgG secondary antibody. The cells were analyzed by flow cytometry, and fold over background values were calculated by normalizing binding MFI to the MFI of a control group in which the cells were incubated with the secondary antibody only.

The target of assay [12] is T7, human CD33 expressed on cells (human, UniProt P20138 18-364).
T7 construct: endogenous CD33 of human AML cell lines and blood monocytes; also called cell-expressed CD33 (Molm-13, Mv4-11, monocytes)
The assay is described as follows: flow cytometry on Molm-13 cells, fluorophore-conjugated anti-human IgG secondary antibody, MFI as fold over background (FOB).
Method: (§3) The cells were analyzed by flow cytometry, and fold over background values were calculated by normalizing binding MFI to the MFI of a control group in which the cells were incubated with the secondary antibody only.

Assay [13] addresses T7, human CD33 expressed on cells. The assay is described as follows: flow cytometry on Mv4-11 cells, fluorophore-conjugated anti-human IgG secondary antibody, MFI as fold over background (FOB).
Method: as §3

Data on two molecules can be found in patent US20220380459A1 (DRAGONFLY THERAPEUTICS, published 2022).

Like-named read-outs stand apart in the source and are kept apart here.

B1: ADI-11801 Fab (Fab, V domains shown)
VH: QVQLVQSGAEVKKPGASVKVSCKASGYTFSDYYMHWVRQAPGQGLEWMGMINPSWGSTSYAQKFQGRVTMTRDTSTSTVYMELSSLRSEDTAVYYCAREAADGFVGERYFDLWGRGTLVTVSS
VL: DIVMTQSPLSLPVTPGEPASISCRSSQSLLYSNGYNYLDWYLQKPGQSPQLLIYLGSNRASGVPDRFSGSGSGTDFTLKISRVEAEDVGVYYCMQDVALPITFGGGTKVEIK
notes: Fab fragment; also called Ab4
In general, Kd refers to the constant that tells how readily two partners part at equilibrium. Low values mean tighter binding, high ones weaker binding. What is called koff is a measure of how fast the partners let go of each other. A lower koff goes with a long-lived complex. The kon is a measure of how fast the partners come together. High values mean fast association, low ones slow association. Regarding B1, the binding result in assay [1] is given as “no binding”; in [7] it was “no binding (tested: 100 nM)”. In addition, the dissociation constant (Kd) in assay [2] came to 0.69 nM; in assay [3], 0.55 nM; in assay [4], 0.69 nM; in assay [5], 0.55 nM; in assay [6], 0.55 nM; in [8], 0.55 nM. In addition, the Kd stood at 0.69 nM in assay [9] and 0.55 nM in [10]. In addition, the koff came to 0.00125 s⁻¹ in assay [2]; 0.000417 s⁻¹ in [3]; 0.00125 s⁻¹ in assay [4]; 0.000417 s⁻¹ in assay [5]; 0.000417 s⁻¹ in assay [6]; 0.000417 s⁻¹ in assay [8]. Also, the values for the koff in assay [9] and in [10] were 0.00125 s⁻¹ and 0.00115 s⁻¹, respectively. Also, the on-rate constant (kon) in assay [2] worked out at 1.8e+06 M⁻¹ s⁻¹; in assay [3] it was 756000 M⁻¹ s⁻¹; in [4], 1.8e+06 M⁻¹ s⁻¹; in assay [5], 756000 M⁻¹ s⁻¹; in assay [6] it was 756000 M⁻¹ s⁻¹; in assay [8], 756000 M⁻¹ s⁻¹. The kon in assay [9] is 1.8e+06 M⁻¹ s⁻¹; in assay [10] it was 2.1e+06 M⁻¹ s⁻¹.

B2: I07-F405L mAb (antibody, human IgG1, kappa, V domains shown)
VH: EVQLVESGGGLVQPGGSLRLSCAASGFTFGSYWMSWVRQAPGKGLEWVATIKQDGSEKSYVDSVKGRFTISRDNAKNSLYLQMNSLRAEDTAVYYCARPLNAGELDVWGQGTMVTVSS
VL: DIQMTQSPSTLSASVGDRVTITCRASQSISSWLAWYQQKPGKAPKLLIYEASSLESGVPSRFSGSGSGTEFTLTISSLQPDDFATYYCQQSQSYPPITFGGGTKVEIKR
notes: Fc variant of I07 with F405L (EU); a Lys may optionally stand at the C-terminus of the heavy chain
By EC50 (read off the curve) is commonly meant the midpoint of the concentration-response curve. With B2, in [11], the binding result is given as “no binding”. For the same molecule, the “EC50 (read off the curve)” value was roughly 2 µg/mL in assay [12] and roughly 0.3 µg/mL in assay [13].
